Results taken from the supplement of paper PMC10065799, “High-throughput profiling of sequence recognition by tyrosine kinases and SH2 domains using bacterial peptide display” (eLife, 2023).

system: c-Src; experiment: phosphorylation enrichment, bacterial display (enrichment ratio); higher = better substrate or ligand; peptides without Tyr show the background
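For SH2 binding enrichment of the phosphorylated peptide, bacterial display in this document: peptide library displayed on the E. coli surface as eCPX fusions, selected cells deep-sequenced, score is each peptide's frequency after selection divided by its frequency in the input.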
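For phosphorylation enrichment, bacterial display in this document: 11-residue human phosphosite peptides and single-mutation variants displayed on the E. coli surface, counted by deep sequencing, each peptide's frequency after selection divided by its frequency in the unselected input library; frequency after pTyr selection over input frequency; kinase dosed for 20-30% of maximal phosphorylation in three min.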

Sequence	phosphorylation enrichment
VECHLYFTQPK [AKR1D1_Y199_P198L]	0.91
AAPAAYDAADT [GAMT_Y27]	0.513
VVCKNYAEAKD [ALB_Y343_D338V]	0.477
KRTFEYEADKN [DENND2B_Y396]	0.39
CRWKRYQRSHD [GDPD5_Y30]	0.579
FNNFGYGSDGF [HNRNPH3_Y161_N163S_YF]	0.453
WFKKFYDANCD [MAPRE2_Y158_Y162C]	0.397
LIGWRYDDPEV [HSPA9_Y128_R126W]	0.43
KITVIYDGACQ [VWDE_Y1035]	0.721
CQNRFYDAKVR [FKBP6_Y188_R183C]	0.416
ATVQNYLPKCI [A2M_Y817_L815Q]	0.362
RHPEVYHHLGV [NVL_Y290]	0.632
LQRCKNSHMEP [TEX45_Y434_Y434N]	0.747
GKVFVYHGSSL [ITGA7_Y458_I457V]	0.349
KQCSDYARELE [MYH3_Y1140_R1137C]	0.514
LDLSYYTTSSS [EMD_Y182_P183T]	0.908
RFLRGYHQDAF [HLA-A_Y137_R138H_YF]	0.81

Sequence	phosphorylation enrichment
HDKEYYSVHNK [MET_Y1235_Y1230H]	0.506
ENSLDYGSAWA [AR_Y395_P392S]	0.514
FFTEEYVRDHP [DOCK2_Y1555]	0.457
DCAAIYGSEPE [AKR1A1_Y50_N52S]	1.4
VGAKTYKMSMA [CPS1_Y309_A304V]	0.498
AKFLGYPPPEI [KDR_Y357_YF]	0.436
TEHMAYCPIQC [SHC4_Y403_Q400H]	0.764
NLSVHYDSSLK [ABCC8_Y1353_R1352H]	0.342
GGEEFYVHYVG [KAT8_Y90_R86G]	0.565
QKKEEYKMALF [F8_Y1990_R1985Q_YF]	0.37
GKLIFHDLRGE [KARS1_Y145_Y145H]	0.399
HDRGNYVRLNM [RECQL4_Y353]	0.592
RHPLEYLRQFP [NARS2_Y138_YF]	0.409
RCQDLYSARDL [SART1_Y249_R245C]	6.42
IEEGTYGVAFR [CDK11B_Y449_V452A_YF]	5.45
SEKVVYQRFTE [NCF1_Y41_R42Q]	1.93

biological target: Grb2 SH2 (UniProt P62993); experiment: SH2 binding enrichment of the phosphorylated peptide, bacterial display (enrichment ratio); higher = better substrate or ligand; peptides without Tyr show the background
Sequence (P62993 whole entry, looked up): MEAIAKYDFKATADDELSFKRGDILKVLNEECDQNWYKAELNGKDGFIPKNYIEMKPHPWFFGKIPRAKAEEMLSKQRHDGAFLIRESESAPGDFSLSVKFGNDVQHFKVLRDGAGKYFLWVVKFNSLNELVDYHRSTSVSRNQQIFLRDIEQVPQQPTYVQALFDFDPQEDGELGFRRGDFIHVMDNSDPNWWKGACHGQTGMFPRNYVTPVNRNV

Sequence	SH2 binding enrichment
VECHLYFTQPK [AKR1D1_Y199_P198L]	0.801
AAPAAYDAADT [GAMT_Y27]	0.839
VVCKNYAEAKD [ALB_Y343_D338V]	0.852
KRTFEYEADKN [DENND2B_Y396]	0.747
CRWKRYQRSHD [GDPD5_Y30]	0.679
FNNFGYGSDGF [HNRNPH3_Y161_N163S_YF]	0.823
WFKKFYDANCD [MAPRE2_Y158_Y162C]	0.848
LIGWRYDDPEV [HSPA9_Y128_R126W]	1.01
KITVIYDGACQ [VWDE_Y1035]	0.697
CQNRFYDAKVR [FKBP6_Y188_R183C]	0.941
ATVQNYLPKCI [A2M_Y817_L815Q]	0.827
RHPEVYHHLGV [NVL_Y290]	1
LQRCKNSHMEP [TEX45_Y434_Y434N]	1.15
GKVFVYHGSSL [ITGA7_Y458_I457V]	1.06
KQCSDYARELE [MYH3_Y1140_R1137C]	1.02
LDLSYYTTSSS [EMD_Y182_P183T]	0.73
RFLRGYHQDAF [HLA-A_Y137_R138H_YF]	0.935

Sequence	SH2 binding enrichment
HDKEYYSVHNK [MET_Y1235_Y1230H]	0.939
ENSLDYGSAWA [AR_Y395_P392S]	0.752
FFTEEYVRDHP [DOCK2_Y1555]	0.944
DCAAIYGSEPE [AKR1A1_Y50_N52S]	0.927
VGAKTYKMSMA [CPS1_Y309_A304V]	0.725
AKFLGYPPPEI [KDR_Y357_YF]	0.794
TEHMAYCPIQC [SHC4_Y403_Q400H]	0.821
NLSVHYDSSLK [ABCC8_Y1353_R1352H]	0.793
GGEEFYVHYVG [KAT8_Y90_R86G]	0.931
QKKEEYKMALF [F8_Y1990_R1985Q_YF]	0.73
GKLIFHDLRGE [KARS1_Y145_Y145H]	0.825
HDRGNYVRLNM [RECQL4_Y353]	0.95
RHPLEYLRQFP [NARS2_Y138_YF]	1.49
RCQDLYSARDL [SART1_Y249_R245C]	0.825
IEEGTYGVAFR [CDK11B_Y449_V452A_YF]	0.612
SEKVVYQRFTE [NCF1_Y41_R42Q]	0.676

biological target: SHP2-C SH2; experiment: as above

Sequence	SH2 binding enrichment
VECHLYFTQPK [AKR1D1_Y199_P198L]	0.867
AAPAAYDAADT [GAMT_Y27]	0.654
VVCKNYAEAKD [ALB_Y343_D338V]	0.807
KRTFEYEADKN [DENND2B_Y396]	0.702
CRWKRYQRSHD [GDPD5_Y30]	0.604
FNNFGYGSDGF [HNRNPH3_Y161_N163S_YF]	0.685
WFKKFYDANCD [MAPRE2_Y158_Y162C]	0.78
LIGWRYDDPEV [HSPA9_Y128_R126W]	1
KITVIYDGACQ [VWDE_Y1035]	0.486
CQNRFYDAKVR [FKBP6_Y188_R183C]	0.914
ATVQNYLPKCI [A2M_Y817_L815Q]	0.581
RHPEVYHHLGV [NVL_Y290]	1.17
LQRCKNSHMEP [TEX45_Y434_Y434N]	0.942
GKVFVYHGSSL [ITGA7_Y458_I457V]	0.64
KQCSDYARELE [MYH3_Y1140_R1137C]	0.704
LDLSYYTTSSS [EMD_Y182_P183T]	0.64
RFLRGYHQDAF [HLA-A_Y137_R138H_YF]	0.614

Sequence	SH2 binding enrichment
HDKEYYSVHNK [MET_Y1235_Y1230H]	1.67
ENSLDYGSAWA [AR_Y395_P392S]	0.563
FFTEEYVRDHP [DOCK2_Y1555]	0.916
DCAAIYGSEPE [AKR1A1_Y50_N52S]	0.553
VGAKTYKMSMA [CPS1_Y309_A304V]	0.421
AKFLGYPPPEI [KDR_Y357_YF]	0.619
TEHMAYCPIQC [SHC4_Y403_Q400H]	0.685
NLSVHYDSSLK [ABCC8_Y1353_R1352H]	0.547
GGEEFYVHYVG [KAT8_Y90_R86G]	1.89
QKKEEYKMALF [F8_Y1990_R1985Q_YF]	0.481
GKLIFHDLRGE [KARS1_Y145_Y145H]	0.824
HDRGNYVRLNM [RECQL4_Y353]	2.16
RHPLEYLRQFP [NARS2_Y138_YF]	1.28
RCQDLYSARDL [SART1_Y249_R245C]	0.605
IEEGTYGVAFR [CDK11B_Y449_V452A_YF]	0.51
SEKVVYQRFTE [NCF1_Y41_R42Q]	1.72

biological target: c-Src SH2; experiment: as above

Sequence	SH2 binding enrichment
VECHLYFTQPK [AKR1D1_Y199_P198L]	0.374
AAPAAYDAADT [GAMT_Y27]	1.11
VVCKNYAEAKD [ALB_Y343_D338V]	0.647
KRTFEYEADKN [DENND2B_Y396]	0.576
CRWKRYQRSHD [GDPD5_Y30]	0.483
FNNFGYGSDGF [HNRNPH3_Y161_N163S_YF]	0.386
WFKKFYDANCD [MAPRE2_Y158_Y162C]	0.513
LIGWRYDDPEV [HSPA9_Y128_R126W]	3.68
KITVIYDGACQ [VWDE_Y1035]	0.479
CQNRFYDAKVR [FKBP6_Y188_R183C]	0.684
ATVQNYLPKCI [A2M_Y817_L815Q]	0.497
RHPEVYHHLGV [NVL_Y290]	1.05
LQRCKNSHMEP [TEX45_Y434_Y434N]	0.691
GKVFVYHGSSL [ITGA7_Y458_I457V]	0.638
KQCSDYARELE [MYH3_Y1140_R1137C]	0.619
LDLSYYTTSSS [EMD_Y182_P183T]	1.49
RFLRGYHQDAF [HLA-A_Y137_R138H_YF]	0.53

Sequence	SH2 binding enrichment
HDKEYYSVHNK [MET_Y1235_Y1230H]	0.783
ENSLDYGSAWA [AR_Y395_P392S]	0.475
FFTEEYVRDHP [DOCK2_Y1555]	0.553
DCAAIYGSEPE [AKR1A1_Y50_N52S]	0.633
VGAKTYKMSMA [CPS1_Y309_A304V]	0.408
AKFLGYPPPEI [KDR_Y357_YF]	0.476
TEHMAYCPIQC [SHC4_Y403_Q400H]	1.2
NLSVHYDSSLK [ABCC8_Y1353_R1352H]	0.509
GGEEFYVHYVG [KAT8_Y90_R86G]	0.495
QKKEEYKMALF [F8_Y1990_R1985Q_YF]	0.483
GKLIFHDLRGE [KARS1_Y145_Y145H]	0.473
HDRGNYVRLNM [RECQL4_Y353]	1.32
RHPLEYLRQFP [NARS2_Y138_YF]	0.984
RCQDLYSARDL [SART1_Y249_R245C]	0.391
IEEGTYGVAFR [CDK11B_Y449_V452A_YF]	0.374
SEKVVYQRFTE [NCF1_Y41_R42Q]	0.618
